Results from patent US20210300992A1.

How the values were obtained:
[1] = target: human leukemia inhibitory factor (LIF), soluble (human) (UniProt P15018); assay: yeast surface display, flow cytometry; Score column of the table of sorted gp130 CBM variants (the filing gives 100 pM and 1 nM human LIF for the gp130 binding scores)
[2] = target: human leukemia inhibitory factor (LIF), soluble (human) (UniProt P15018); assay: yeast surface display, flow cytometry; soluble human LIF titrated (0.001 to 100 nM), detected with a fluorescent antibody
[3] = target: human leukemia inhibitory factor (LIF), soluble (human) (UniProt P15018); assay: yeast surface display, flow cytometry; score from summed fluorescence at 10 pM and 100 pM human LIF, normalized to wild-type and to expression

Chain of human leukemia inhibitory factor (LIF), soluble (human) (P15018 23-202 limits assumed): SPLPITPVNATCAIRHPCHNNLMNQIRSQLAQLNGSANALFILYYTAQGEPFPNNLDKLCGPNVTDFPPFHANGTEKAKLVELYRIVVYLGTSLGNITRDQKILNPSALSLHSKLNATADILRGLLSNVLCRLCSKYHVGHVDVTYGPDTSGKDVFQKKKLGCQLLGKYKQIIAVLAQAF

Row | Score (binding score) [1] | EC50 (read off the curve) [2] [nM] | Score (normalized binding score) [3] | Substance
1 | 23.6 | – | – | ELRDSLE (receptor)
2 | – | 0.4 | 7.71 | PDD (receptor)
3 | – | – | 13.9 | PVVIDN (receptor)

Further lines, the substance ahead of its results:

Row | Substance | Score (binding score) [1] | EC50 (read off the curve) [2] [nM] | Score (normalized binding score) [3]
4 | ELDI (receptor) | 15.9 | – | –
5 | PRDSAID (receptor) | – | – | 15.8
